The target in assay [1] is Biotinylated green fluorescent protein (biotin-GFP). Kind of assay: native-PAGE, dissociation under excess biotin, 23 °C, 10 h.
Assay [2] has the same target. Kind of assay: native-PAGE, dissociation under excess biotin, 45 °C, 10 h.
Assay [3] has the same target. Kind of assay: native-PAGE, dissociation under excess biotin, 37 °C, 10 h.

“Neutravidin (NA) (from UniProt P02701 25-152)”: the figures for the percent of biotin conjugate dissociated after 10 h in assay [1], in assay [2] and in assay [3] were 6.8%, 32% and 16%, respectively.

Values taken from patent publication US20170114104A1.
